3 substances from patent publication US20190085033A1 can be followed below.

Usually Kd stands for the concentration at which binding is half-saturated.

Assay [1] addresses CD4 on human CD4+ T cells (human) (UniProt P01730). Briefly: flow cytometry, trimer labelled with two fluorescent probes on human CD4+ T cells, 30 mins.
In assay [2] the target is BG505-gp120 9MUTB (7MUT+N135R/Q328M) (HIV-1, strain BG505). Briefly: SPR, monomeric gp120. In general terms: Surface plasmon resonance follows binding to a sensor surface in real time, without labels.
The next assay has as its target BG505 SOSIP T332N gp140. Briefly: SPR. Particulars: Fab.

Substance “BG505 SOSIP T332N gp140 (other; other documents disagree on this pair)” had a percentage of cells bound (double-positive population) in assay [1] of 99.1%.

For the substance PGT121 (antibody), the Kd in assay [2] was found to be 1.5 nM.

For PGT121 Fab, the Kd with BG505 SOSIP T332N gp140 turned out to be 26 nM.
